As a reminder, the Kd is the concentration at which binding is half-saturated. A low value points to a tighter complex.

In US20050084449A1 one finds Kd data, which are given here for 4 molecules.

Sequences and labels used below:
B1: anti-TIM-1 mAb 2.70 (antibody, V domains shown)
VH: QVQLVESGGGVVQPGRSLRLSCAASGFIFSRYGMHWVRQAPGKGLKWVAVIWYDGSNKLYADSVKGRFTISRDNSKNTLYLQMNSLRAEDTAVYYCARDYYDNSRHHWGFDYWGQGTLVTVSS
VL: DIVMTQTPLSLPVTPGEPASISCRSSRSLLDSDDGNTYLDWYLQKPGQSPQLLIYTLSYRASGVPDRFSGSGSGTDFTLKISRVEAEDVGVYYCMQRVEFPITFGQGTRLEIKR
B2: anti-TIM-1 mAb 1.29 (antibody, human IgG2, V domains shown)
VH: QVQLQESGPGLVKPSETLSLTCTVSGGSVSSGGYYWSWIRQPPGKGLEWIGFIYYTGSTNYNPSLKSRVSISVDTSKNQFSLKLSSVTAADAAVYYCARDYDWSFHFDYWGQGTLVTVSS
VL: DIQMTQSPSSLSASIGDRVTITCRASQGIRNDLGWYQQKPGKAPKRLIYAASSLQSGVPSRFSGSGSGTEFTLTISSLQPEDFATYYCLQHNSYPLTFGGGTKVEIKR
B3: anti-TIM-1 mAb 2.61 (antibody, human IgG4, V domains shown)
VH: QVQLVEAGGGVVQPGRSLRLSCAASGFTFRSYGMHWVRQAPGKGLKWVAVIWYDGSNKYYTDSVKGRFTISRDNSKNTLYLQMNSLRAEDTAVYYCVRDYYDNSRHHWGFDYWGQGTLVTVSS
VL: DIQMTQSPSSRCASVGDRVTITCRASQGIRNDLAWYQQKPGKAPKRLIYAASSLQSGVPSRFSGSRSGTEFTLTISSLQPEDFAAYYCLQHNSYPPSFGQGTKLEIKR
B4: anti-TIM-1 mAb 1.37 (antibody, human IgG2, V domains shown)
VH: EVQLVESGGGLVQPGGSLRLSCAASGFTFTNYWMSWVRQAPGKGLEWVANIQQDGSEKYYVDSVRGRFTISRDNAKNSLYLQMNSLRAEDSAVYYCARWDYWGQGTLVTVSS
VL: DIVMTQTPLSSTVILGQPASISCRSSQSLVHSDGNTYLNWLQQRPGQPPRLLIYMISNRFSGVPDRFSGSGAGTDFTLKISRVEAEDVGVYYCMQATESPQTFGQGTKVEIKR

This assay concerns the target TIM-1 antigen (soluble extracellular domain of TIM-1, CG57008-02, with a V5-HIS tag) (human) (UniProt Q96D42). Put plainly: BIAcore 2000, mAb captured on goat anti-human surface, TIM-1 antigen injected, 25 C. For orientation: Surface plasmon resonance follows binding to a sensor surface in real time, without labels.
Take B1: the Kd was 2.71 nM.

Molecule B2 displayed an equilibrium dissociation constant (Kd) of 3.64 nM.

Turning to B3, the Kd was determined as 1 nM. This Kd is about 3.6-fold lower than that of the molecule before.

On to B4, for which the Kd stood at 2.78 nM.
